Assay results: publication PMC10849882

How the values were obtained:
[1] = target: IMPDH1(595)-S477D (human); test: cryo-EM structure
[2] = target: IMPDH1(595)-S477D (human); test: negative stain EM

IMPDH1(595)-S477D (enzyme) showed a stoichiometry N [1] of 8 and a stoichiometry N [2] of 8.
